Reference: patent US20190360025A1

What was measured:
[1] = biological target: tumor necrosis factor alpha (TNF-α), R&D Systems 210-TA-005 (UniProt P01375); assay: t-PLA, buffer; TNF-α 1.00E-09 M
[2] = biological target: tumor necrosis factor alpha (TNF-α), R&D Systems 210-TA-005 (UniProt P01375); assay: t-PLA 10X probes, human plasma; TNF-α 1.00E-13 M
[3] = biological target: tumor necrosis factor alpha (TNF-α), R&D Systems 210-TA-005 (UniProt P01375); assay: c-PLA 10X probes, human plasma; TNF-α 5.00E-07 M
[4] = biological target: tumor necrosis factor alpha (TNF-α), R&D Systems 210-TA-005 (UniProt P01375); assay: t-PLA 1X probes, human plasma; TNF-α 1.00E-09 M
[5] = biological target: tumor necrosis factor alpha (TNF-α), R&D Systems 210-TA-005 (UniProt P01375); assay: c-PLA 1X probes, human plasma; TNF-α 1.00E-09 M
[6] = biological target: tumor necrosis factor alpha (TNF-α), R&D Systems 210-TA-005 (UniProt P01375); assay: c-PLA, buffer; TNF-α 1.00E-08 M
[7] = biological target: vascular endothelial growth factor (VEGF), R&D Systems 293-VE-010 (human) (UniProt P15692); assay: c-PLA, human plasma; VEGF 1.00E-09 M
[8] = biological target: vascular endothelial growth factor (VEGF), R&D Systems 293-VE-010 (human) (UniProt P15692); assay: c-PLA with preamplification; VEGF 1.00E-12 M

Chain of UniProt P15692 (P15692 other isoform, or with tags, fused parts or gaps limits assumed): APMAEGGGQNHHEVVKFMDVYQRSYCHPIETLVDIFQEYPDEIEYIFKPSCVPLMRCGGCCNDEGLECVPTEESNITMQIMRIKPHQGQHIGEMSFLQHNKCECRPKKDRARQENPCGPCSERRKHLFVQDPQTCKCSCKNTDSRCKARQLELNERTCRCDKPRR
Chain of UniProt P01375 (P01375 77-233 limits assumed): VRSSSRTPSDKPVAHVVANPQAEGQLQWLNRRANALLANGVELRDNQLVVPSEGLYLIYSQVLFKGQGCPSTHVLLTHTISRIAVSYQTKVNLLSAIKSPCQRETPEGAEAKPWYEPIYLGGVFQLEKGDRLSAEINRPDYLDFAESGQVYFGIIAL

Row | Counts [7] | SBR [7] | Counts [8] | SBR [8] | Substance | Counts [1] | SBR [1] | Counts [2] | SBR [2] | Counts [3] | SBR [3] | Counts [4] | SBR [4] | Counts [5] | SBR [5] | Counts [6] | SBR [6]
1 |  |  |  |  | affinity-purified polyclonal anti-TNF-α antibody (R&D Systems AF-210-NA) | 1.98e+07 | 116 | 1.36e+07 | 1.2 | 495000 | 230 | 4.96e+06 | 21 | 1310 | 17 | 11600 | 1030
2 | 40500 | 156 | 516000 | 8.7 | affinity-purified polyclonal anti-VEGF antibody (R&D Systems AF-293-NA) |  |  |  |  |  |  |  |  |  |  |  | 
